Among the data in patent publication US20050260730A1, “CDK2/cyclin A crystals and uses thereof” (priority 2003, published 2005) are IC50 values, retold here.

Non-standard residues stand in square brackets, D forms with d. Phe(4-F) = N[C@@H](Cc1ccc(F)cc1)C(=O)O

The test has as its target cyclin A (human) (UniProt P20248). Kind of test: competitive cyclin A binding assay.

Substance H-RRL[Phe(4-F)]-NH2 gave an IC50 of 19 µM.
